This is an account of results in patent US20260014245A1.

The target of assay [1] is DPP4/CD26 on human CD3 expressing T cells (human) (UniProt P27487). The assay is described as follows: flow cytometry of human PBMCs, MERS-RBD - AF488 against CD3 - PerCP-Cy5. In general terms: A flow cytometer gives signals particle by particle.
The target in assay [2] is MERS-CoV RBD (wild type, amino acids G372-L588, AviTag, Twin Strep tag, 6xHis) (MERS-CoV). The assay is described as follows: rabbit DPP4.

Chain of DPP4/CD26 on human CD3 expressing T cells (human) (P27487 whole entry, the tested form may be a part): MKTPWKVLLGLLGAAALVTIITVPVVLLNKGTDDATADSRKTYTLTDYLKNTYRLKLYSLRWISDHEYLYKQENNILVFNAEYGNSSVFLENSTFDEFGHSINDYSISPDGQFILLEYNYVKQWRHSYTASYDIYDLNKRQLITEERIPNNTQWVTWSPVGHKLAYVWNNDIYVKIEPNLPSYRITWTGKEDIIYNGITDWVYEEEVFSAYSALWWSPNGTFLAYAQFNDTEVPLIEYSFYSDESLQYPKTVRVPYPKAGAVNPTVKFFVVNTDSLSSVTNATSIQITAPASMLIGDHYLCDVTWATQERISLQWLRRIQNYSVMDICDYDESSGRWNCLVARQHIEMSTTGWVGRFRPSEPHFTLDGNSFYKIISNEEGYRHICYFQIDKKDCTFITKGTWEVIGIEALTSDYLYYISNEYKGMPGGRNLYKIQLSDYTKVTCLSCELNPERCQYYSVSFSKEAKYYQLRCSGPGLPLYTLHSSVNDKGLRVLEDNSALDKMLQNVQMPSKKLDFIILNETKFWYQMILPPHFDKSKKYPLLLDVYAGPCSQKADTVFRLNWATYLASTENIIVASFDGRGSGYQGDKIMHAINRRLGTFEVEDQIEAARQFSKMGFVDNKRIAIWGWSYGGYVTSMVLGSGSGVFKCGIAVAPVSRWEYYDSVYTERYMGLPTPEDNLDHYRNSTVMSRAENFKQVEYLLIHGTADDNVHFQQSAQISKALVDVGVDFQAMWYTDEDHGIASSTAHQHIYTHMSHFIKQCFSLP

“MERS-CoV RBD (wild type, amino acids G372-L588, AviTag, Twin Strep tag, 6xHis) (ligand; other documents disagree on this pair)”: the CD3+ MERS-RBD+ quadrant frequency (percent of gated DAPI- lymphocytes) in assay [1] stood at 4.92.
As for “recombinant rabbit DPP4 with a C-terminal 6xHis-tag (rbDPP4-His) (from UniProt A0A5F9CKR3 29-732) (receptor)”, the Kd (as a rule, a measure of binding affinity in units of concentration) in assay [2] amounted to 34.3 nM.
